Paper PMC4123461 (Experimental eye research, 2014)

T1: Best1-CFP (human, UniProt O76090 1-585)
T1 sequence (looked up): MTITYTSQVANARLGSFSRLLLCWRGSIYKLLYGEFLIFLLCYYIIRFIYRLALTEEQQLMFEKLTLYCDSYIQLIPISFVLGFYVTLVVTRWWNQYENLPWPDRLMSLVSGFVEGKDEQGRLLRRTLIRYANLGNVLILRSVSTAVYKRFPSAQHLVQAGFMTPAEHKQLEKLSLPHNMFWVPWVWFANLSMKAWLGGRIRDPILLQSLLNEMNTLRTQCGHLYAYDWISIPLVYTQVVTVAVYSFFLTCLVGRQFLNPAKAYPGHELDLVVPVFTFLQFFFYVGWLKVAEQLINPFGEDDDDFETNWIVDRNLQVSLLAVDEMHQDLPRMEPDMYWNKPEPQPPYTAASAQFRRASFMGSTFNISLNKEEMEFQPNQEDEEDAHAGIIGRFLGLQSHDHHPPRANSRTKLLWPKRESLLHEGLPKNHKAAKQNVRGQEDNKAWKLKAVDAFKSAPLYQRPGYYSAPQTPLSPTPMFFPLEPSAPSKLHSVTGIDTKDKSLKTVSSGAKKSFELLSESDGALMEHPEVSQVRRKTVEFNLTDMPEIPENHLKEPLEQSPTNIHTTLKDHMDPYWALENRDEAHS


Target: T1, Best1-CFP
Assay: FRET or BRET

Row | FRET efficiency (%E) | Binder
1 | 13.6% | WT Best1-YFP (natural protein, human, UniProt O76090 1-585, looked up) MTITYTSQVANARLGSFSRLLLCWRGSIYKLLYGEFLIFLLCYYIIRFIYRLALTEEQQLMFEKLTLYCDSYIQLIPISFVLGFYVTLVVTRWWNQYENLPWPDRLMSLVSGFVEGKDEQGRLLRRTLIRYANLGNVLILRSVSTAVYKRFPSAQHLVQAGFMTPAEHKQLEKLSLPHNMFWVPWVWFANLSMKAWLGGRIRDPILLQSLLNEMNTLRTQCGHLYAYDWISIPLVYTQVVTVAVYSFFLTCLVGRQFLNPAKAYPGHELDLVVPVFTFLQFFFYVGWLKVAEQLINPFGEDDDDFETNWIVDRNLQVSLLAVDEMHQDLPRMEPDMYWNKPEPQPPYTAASAQFRRASFMGSTFNISLNKEEMEFQPNQEDEEDAHAGIIGRFLGLQSHDHHPPRANSRTKLLWPKRESLLHEGLPKNHKAAKQNVRGQEDNKAWKLKAVDAFKSAPLYQRPGYYSAPQTPLSPTPMFFPLEPSAPSKLHSVTGIDTKDKSLKTVSSGAKKSFELLSESDGALMEHPEVSQVRRKTVEFNLTDMPEIPENHLKEPLEQSPTNIHTTLKDHMDPYWALENRDEAHS
2 | 14.8% | A146L Best1-YFP (natural protein, human, UniProt O76090 1-585, looked up) MTITYTSQVANARLGSFSRLLLCWRGSIYKLLYGEFLIFLLCYYIIRFIYRLALTEEQQLMFEKLTLYCDSYIQLIPISFVLGFYVTLVVTRWWNQYENLPWPDRLMSLVSGFVEGKDEQGRLLRRTLIRYANLGNVLILRSVSTLVYKRFPSAQHLVQAGFMTPAEHKQLEKLSLPHNMFWVPWVWFANLSMKAWLGGRIRDPILLQSLLNEMNTLRTQCGHLYAYDWISIPLVYTQVVTVAVYSFFLTCLVGRQFLNPAKAYPGHELDLVVPVFTFLQFFFYVGWLKVAEQLINPFGEDDDDFETNWIVDRNLQVSLLAVDEMHQDLPRMEPDMYWNKPEPQPPYTAASAQFRRASFMGSTFNISLNKEEMEFQPNQEDEEDAHAGIIGRFLGLQSHDHHPPRANSRTKLLWPKRESLLHEGLPKNHKAAKQNVRGQEDNKAWKLKAVDAFKSAPLYQRPGYYSAPQTPLSPTPMFFPLEPSAPSKLHSVTGIDTKDKSLKTVSSGAKKSFELLSESDGALMEHPEVSQVRRKTVEFNLTDMPEIPENHLKEPLEQSPTNIHTTLKDHMDPYWALENRDEAHS
3 | 12.4% | N179del Best1-YFP (natural protein, human, UniProt O76090 1-585, looked up) MTITYTSQVANARLGSFSRLLLCWRGSIYKLLYGEFLIFLLCYYIIRFIYRLALTEEQQLMFEKLTLYCDSYIQLIPISFVLGFYVTLVVTRWWNQYENLPWPDRLMSLVSGFVEGKDEQGRLLRRTLIRYANLGNVLILRSVSTAVYKRFPSAQHLVQAGFMTPAEHKQLEKLSLPHMFWVPWVWFANLSMKAWLGGRIRDPILLQSLLNEMNTLRTQCGHLYAYDWISIPLVYTQVVTVAVYSFFLTCLVGRQFLNPAKAYPGHELDLVVPVFTFLQFFFYVGWLKVAEQLINPFGEDDDDFETNWIVDRNLQVSLLAVDEMHQDLPRMEPDMYWNKPEPQPPYTAASAQFRRASFMGSTFNISLNKEEMEFQPNQEDEEDAHAGIIGRFLGLQSHDHHPPRANSRTKLLWPKRESLLHEGLPKNHKAAKQNVRGQEDNKAWKLKAVDAFKSAPLYQRPGYYSAPQTPLSPTPMFFPLEPSAPSKLHSVTGIDTKDKSLKTVSSGAKKSFELLSESDGALMEHPEVSQVRRKTVEFNLTDMPEIPENHLKEPLEQSPTNIHTTLKDHMDPYWALENRDEAHS
